In paper doi:10.1101/2023.09.25.559264:
Like-named read-outs stand apart in the source and are kept apart here.

Columns and labels:
Assay in all cases: MST
[1] = molecular target: T1, WtIHF (wild-type integration host factor) (E. coli, UniProt P0A6X7;P0A6Y1 1-99;1-94)
[2] = molecular target: T1, WtIHF (wild-type integration host …); remark: listed apart in the source
[3] = molecular target: T1, WtIHF (wild-type integration host …); remark: listed apart in the source

T1 sequence (P0A6X7 whole entry, chain 1 of 2): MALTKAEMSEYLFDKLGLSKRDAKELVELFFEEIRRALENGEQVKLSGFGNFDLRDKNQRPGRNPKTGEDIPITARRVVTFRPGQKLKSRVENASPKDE
T1 sequence (P0A6Y1 whole entry, chain 2 of 2): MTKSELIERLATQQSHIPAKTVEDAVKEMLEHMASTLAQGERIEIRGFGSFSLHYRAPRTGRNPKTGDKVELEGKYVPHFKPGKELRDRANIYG

Binder	Kd [1]	Kd [2]	Kd [3]
H'-HJ (structured_DNA) DNA 1: CCAGACAGCAGTTATCAATTTGTTGGGACGGAGG DNA 2: CCTTCAACCACCGCTCATGATTACTGCTGTCTGG DNA 3: CCTCCGTCCCAACAAATGGCTGCTACCGGAAGGG DNA 4: AAAAACCCTTCCGGTAGCAGCCTGAGCGGTGGTTGAAGG	13.6 ± 2.21 nM	2.8 ± 0.5 nM	12 ± 0.89 nM
H1-HJ (structured_DNA) DNA 1: CCAGACAGCAGTAATCAACTACTTAGGACGGAGG DNA 2: CCTTCAACCACCGCTCATGATTACTGCTGTCTGG DNA 3: CCTCCGTCCTAAGTAGTGGCTGCTACCGGAAGGG DNA 4: AAAAACCCTTCCGGTAGCAGCCTGAGCGGTGGTTGAAGG	7.09 ± 0.93 nM	11 ± 1.6 nM	7.75 ± 1.1 nM
